The values that follow are results of earlier work, collected in PMC8781899.

In data set [1] the target is DR4 (Homo sapiens) (UniProt O00220).
Data set [2] shares this target. This is another data set of the same source.

Read-outs that look alike come from different tables or passages of the source.

Chain of UniProt O00220 (O00220 24-468): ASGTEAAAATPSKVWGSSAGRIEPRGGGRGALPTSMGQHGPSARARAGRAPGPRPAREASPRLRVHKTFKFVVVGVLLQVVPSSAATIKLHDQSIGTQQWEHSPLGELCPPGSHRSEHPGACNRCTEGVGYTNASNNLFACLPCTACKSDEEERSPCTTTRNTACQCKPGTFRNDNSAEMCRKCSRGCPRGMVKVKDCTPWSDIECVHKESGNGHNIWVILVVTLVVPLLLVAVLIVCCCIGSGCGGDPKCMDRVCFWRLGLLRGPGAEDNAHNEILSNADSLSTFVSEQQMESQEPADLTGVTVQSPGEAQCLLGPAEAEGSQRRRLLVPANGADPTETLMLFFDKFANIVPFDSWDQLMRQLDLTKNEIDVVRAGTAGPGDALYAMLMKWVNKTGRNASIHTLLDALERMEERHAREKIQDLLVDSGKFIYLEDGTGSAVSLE
Chain of TRAIL (P50591 whole entry): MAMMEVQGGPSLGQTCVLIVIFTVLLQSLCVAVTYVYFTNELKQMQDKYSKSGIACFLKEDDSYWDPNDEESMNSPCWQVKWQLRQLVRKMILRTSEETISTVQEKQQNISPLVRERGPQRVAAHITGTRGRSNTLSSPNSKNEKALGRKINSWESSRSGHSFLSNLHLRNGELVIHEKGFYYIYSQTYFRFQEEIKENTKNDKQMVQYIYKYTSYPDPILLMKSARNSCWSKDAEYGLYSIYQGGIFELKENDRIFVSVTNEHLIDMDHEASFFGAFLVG

With “TRAIL D269H/E195R (DHER) (from UniProt P50591)”, the equilibrium dissociation constant (Kd) (commonly the constant that tells how readily two partners part at equilibrium) with DR4 (Homo sapiens) [1] was 2.9 nM. Regarding TRAIL (from UniProt P50591), the Kd with DR4 (Homo sapiens) [2] was 0.17 nM.
